Measured values reported in article PMC11428423 (2024).

T1: MT-C34 peptide conjugated to bovine serum albumin (BSA-MT-C34 conjugate) (HIV-1, covalently conjugated to bovine serum albumin by the sulfo-SMCC linker)
T1 chain: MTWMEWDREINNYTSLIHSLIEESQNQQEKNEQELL


Assays:
[1] = biological target: T1, MT-C34 peptide conjugated to bovine …; test: ELISA; replicate mAb-3, slope x 10^-8 M
[2] = biological target: T1, MT-C34 peptide conjugated to bovine …; test: ELISA; replicate chAb-1, slope x 10^-8 M

| Binder | Kd [1] [nM] | Kd [2] [nM] |
| --- | --- | --- |
| C24-6 mouse monoclonal antibody against the MT-C34 peptide (mAb) (antibody, V domains shown) VH: EVQLVESGGDLVKPGGSLKLSCAASGFTFSRFGMSWGRQTPDKRLEWVATISTGGSYTYYPDSVKGRFTISRDNAKNSLYLQMSSLKSEDTAMYYCARHDDTAVYAMDYWGQGTSVTVSS VL: DVVMTQTPLSLPVSLGDQASISCRSSQSLVHSDGDTYLHWYLQKPGQSPKLLIYKVSNRFSGVPDRFSGSGSGTDFTLKISRAEAEDLGVYFCSQSTHVPLTFGAGTKLELK | 2.26 |  |
| human chimeric anti-MT-C34 antibody (chAb) (antibody, V domains shown) VH: EVQLVESGGDLVKPGGSLKLSCAASGFTFSRFGMSWGRQTPDKRLEWVATISTGGSYTYYPDSVKGRFTISRDNAKNSLYLQMSSLKSEDTAMYYCARHDDTAVYAMDYWGQGTSVTVSS VL: DVVMTQTPLSLPVSLGDQASISCRSSQSLVHSDGDTYLHWYLQKPGQSPKLLIYKVSNRFSGVPDRFSGSGSGTDFTLKISRAEAEDLGVYFCSQSTHVPLTFGAGTKLELK |  | 1.14 |
